Test results from patent publication US20240368233A1 (University of Washington, published 2024).

Assays:
DF284B = target: T1, DF284B; assay: SEC of mixed components; trimer listed in Table 6
T1 construct: Bivalent connector
T1 chain: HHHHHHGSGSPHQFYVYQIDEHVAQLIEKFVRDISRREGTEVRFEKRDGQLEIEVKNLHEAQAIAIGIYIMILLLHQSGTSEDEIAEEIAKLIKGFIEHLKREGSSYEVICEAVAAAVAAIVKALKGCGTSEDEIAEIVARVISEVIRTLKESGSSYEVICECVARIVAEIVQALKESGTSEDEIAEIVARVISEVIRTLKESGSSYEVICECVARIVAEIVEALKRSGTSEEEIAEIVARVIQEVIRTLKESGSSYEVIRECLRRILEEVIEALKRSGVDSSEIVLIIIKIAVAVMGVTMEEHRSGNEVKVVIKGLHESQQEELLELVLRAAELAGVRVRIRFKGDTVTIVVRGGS

LHD101 B8 = target: T2, LHD101 B8; assay: SEC binding assay (Superdex 200, normalised A230) of A, B and the mixture AB
T2 single chain, LHD101 chain B fused to DHR8: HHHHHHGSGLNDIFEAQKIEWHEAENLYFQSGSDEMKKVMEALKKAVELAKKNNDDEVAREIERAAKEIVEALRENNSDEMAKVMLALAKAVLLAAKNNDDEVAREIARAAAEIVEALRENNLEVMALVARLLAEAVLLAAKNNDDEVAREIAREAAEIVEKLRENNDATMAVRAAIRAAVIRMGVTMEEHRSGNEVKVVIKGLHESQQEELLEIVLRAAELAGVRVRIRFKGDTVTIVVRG

101B14 = target: T3, 101B14; assay: as above
T3 construct: also called LHD101 B14
T3 single chain, LHD101 chain B fused to DHR14: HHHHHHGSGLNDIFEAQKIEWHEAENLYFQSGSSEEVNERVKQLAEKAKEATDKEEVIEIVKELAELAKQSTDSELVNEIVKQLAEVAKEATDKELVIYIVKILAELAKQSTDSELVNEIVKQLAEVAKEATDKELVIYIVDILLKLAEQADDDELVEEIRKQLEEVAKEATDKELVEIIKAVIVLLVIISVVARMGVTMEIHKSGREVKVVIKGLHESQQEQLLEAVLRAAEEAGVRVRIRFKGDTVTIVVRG

101B62 = target: T4, 101B62; assay: as above
T4 construct: also called LHD101B62
T4 chain: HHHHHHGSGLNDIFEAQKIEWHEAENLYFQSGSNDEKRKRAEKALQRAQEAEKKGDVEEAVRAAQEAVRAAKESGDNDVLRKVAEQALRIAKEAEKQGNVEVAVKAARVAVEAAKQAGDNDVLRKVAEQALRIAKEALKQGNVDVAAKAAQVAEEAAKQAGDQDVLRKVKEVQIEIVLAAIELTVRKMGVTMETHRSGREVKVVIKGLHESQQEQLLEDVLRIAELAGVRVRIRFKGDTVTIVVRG

101B82 = target: T5, 101B82; assay: as above
T5 chain: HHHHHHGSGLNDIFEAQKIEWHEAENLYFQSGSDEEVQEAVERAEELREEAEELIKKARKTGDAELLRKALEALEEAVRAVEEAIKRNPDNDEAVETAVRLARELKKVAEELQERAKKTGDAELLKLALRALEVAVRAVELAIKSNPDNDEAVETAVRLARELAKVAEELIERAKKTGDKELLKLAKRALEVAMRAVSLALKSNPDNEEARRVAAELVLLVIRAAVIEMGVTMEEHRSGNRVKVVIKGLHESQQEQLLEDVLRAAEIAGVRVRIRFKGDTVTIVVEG

[1] = target: the molecule itself; assay: SEC titration of the protomer alone at several injection concentrations (Superdex 200, normalised A230); self-association
[2] = target: the molecule itself; assay: SEC titration of the C4 hub alone (normalised A230, concentrations per monomer) and negative-stain EM; self-association of hubs
LHD29 chainB [3] = target: T6, LHD29 chainB; assay: BLI, steady state fit
T6 construct: also called LHD29B; 29B
T6 chain: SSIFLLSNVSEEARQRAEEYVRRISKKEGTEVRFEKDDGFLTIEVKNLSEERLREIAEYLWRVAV
Procedure: (§1) Biolayer interferometry experiments were performed on an OctetRED96 BLI system (ForteBio, Menlo Park, CA). Streptavidin coated biosensors were first equilibrated for at least 10 minutes in Octet buffer (10 mM HEPES pH 7.4, 150 mM NaCl, 3 mM EDTA, 0.05% Surfactant P20) supplemented with 1 mg/ml Bovine Serum Albumin (SigmaAldrich). Enzymatically biotinylated designs were immobilized onto the biosensors by dipping the biosensors into a solution with 10-50 nM protein for 30-120 s. This was followed by dipping in fresh octet buffer to establish a baseline for 120 s. Titration experiments were performed at 25° C. while rotating at 1,000 r.p.m. Association of designs was allowed by dipping biosensors in solutions containing designed protein diluted in octet buffer until equilibrium was approached followed by dissociation by dipping the biosensors into fresh buffer solution in order to monitor the dissociation kinetics. Steady-state and global kinetic fits were performed using the manufacturer's software (Data Analysis 9.1) assuming a 1:1 binding model.

[4] = target: the molecule itself; assay: BLI conditions (self-association)
LHD29 chainB [5] = target: T6, LHD29 chainB; assay: BLI, global kinetic fit, 1:1 model
Procedure: as §1

LHD206 chainB [6] = target: T7, LHD206 chainB; assay: BLI, steady state fit
T7 construct: also called LHD206B
T7 chain: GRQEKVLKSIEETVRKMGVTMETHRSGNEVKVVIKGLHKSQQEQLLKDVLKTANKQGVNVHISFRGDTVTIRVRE
Procedure: as §1

LHD206 chainB [7] = target: T7, LHD206 chainB; assay: BLI, global kinetic fit, 1:1 model
Procedure: as §1

DFA0 = target: T8, DFA0; assay: SEC of mixed components; trimer listed in Table 6
T8 construct: Bivalent connector
T8 chain: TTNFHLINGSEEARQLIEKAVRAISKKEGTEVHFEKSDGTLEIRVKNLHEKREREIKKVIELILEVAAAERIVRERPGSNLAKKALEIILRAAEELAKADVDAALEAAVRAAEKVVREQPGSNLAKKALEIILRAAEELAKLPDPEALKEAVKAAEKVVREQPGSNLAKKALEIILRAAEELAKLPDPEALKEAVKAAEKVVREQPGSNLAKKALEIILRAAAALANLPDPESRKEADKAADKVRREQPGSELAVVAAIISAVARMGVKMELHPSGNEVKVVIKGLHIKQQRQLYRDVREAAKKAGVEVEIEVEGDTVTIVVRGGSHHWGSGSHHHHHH

202B57 = target: T9, 202B57; assay: SEC of mixed components; linear tetramer listed in Table 6, neighbours in the chain
T9 chain: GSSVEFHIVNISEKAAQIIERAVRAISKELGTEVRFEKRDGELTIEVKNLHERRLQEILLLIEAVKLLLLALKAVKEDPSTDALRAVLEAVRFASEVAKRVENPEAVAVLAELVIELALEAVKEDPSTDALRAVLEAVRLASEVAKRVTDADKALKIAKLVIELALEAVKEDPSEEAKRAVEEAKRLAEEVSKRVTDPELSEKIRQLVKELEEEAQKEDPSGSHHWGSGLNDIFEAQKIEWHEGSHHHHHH
Procedure: Complexes and individual components were diluted in 20 mM Tris pH 8.0, 100 mM NaCl. After o/n equilibration of the mixtures at room temperature or 4 degrees C., 500 ul of sample was injected onto a Superdex™ 200 10/300 increase GL (dimers, linear assemblies) or Superose™ 6 increase 10/300 GL (symmetric assemblies) (all columns from GE healthcare) using the absorbance at 230 nm or 473 nm (for GFP tagged components) as read-out. Dimers were mixed at monomer concentrations of 5 μM or higher. Trimer and ABCD tetramer mixtures contained 5 μM of the bivalent connector, and 7.5 μM of each terminal cap (lower absolute concentrations with the same ratios were used for some trimers). ABCA tetramer mixtures contained 5 μM per bivalent connector and 15 μM terminal cap. The hexamer mixture contained 3 μM of components C and D, 3.6 μM of B and E, and 4.4 μM of A and F. The branched assembly shown in FIG. 4A contained 2.8 μM of the trivalent connector and 4 μM of each cap. For the exchange experiment shown in FIG. 5A, the ABC trimer was preincubated at concentrations of 6 μM B and 9 μM each of A and C. C′ was then added to reach a final concentration of 2 μM B, 3 μM each of A and C, and 6 μM C′.

B1: 101A53 (designed binder)
chain: HHHHHHGSGLNDIFEAQKIEWHEAENLYFQSGSNDEKEKLKELLKRAEELAKSPDPEDLKEAVRLAEEVVRERPGSNLAKKALEIILRAAEELAKLPDPEALKEAVKAAEKVVREQPGSNLAKKALEIILRAAAALANLPDPESRKEADKAADKVRREQPGSELAVVAAIISAVARMGVKMELHPSGNEVKVVIKGLHIKQQRQLYRDVREAAKKAGVEVEIEVEGDTVTIVVRG
notes: also called LHD101A53
binding result (DF284B): binds | binding result (LHD101 B8): binds | binding result (101B14): binds | binding result (101B62): binds | binding result (101B82): binds | binding result [1]: no binding

B2: C4-Hub (designed binder)
chain: GNTHFIVVHGSEDAAQLAEELVREISKKEGTEVRFEKKDGLLSIEVKNLSEERQREIQKALQLVQDVANAERVVRERPGSNLAKKALEIILRAAEELAKLDLKASLKAAVRAAEKVVREQPGSELAKKALEIILRAAEELAKLPDPEALHEAVRAAEHVVRSQPGSEAAKEALRIIQEAAELLKESPDPTAIIRAARALLKIARTTGDEEAAKEAIEAAKKAADLARERGDDELVCEALALLVAAQVELLKQQGTSAVEIAKIVARVISEVIRTLKEKGSSYEVICECVARIVAEIVEALKRSGTSAAIIALIVALVISEVIRTLKESGSSFEVILECVIRIVLEIIEALKRSGTSEQDVMLIVMAVLLVVLATLQLSGSGSLEHHHHHH
notes: C4-symmetric homo-oligomeric hub carrying LHD274B; also called C4 53; C4-symmetric hub
binding result [2]: binds

B3: LHD29 chainA (designed binder)
chain: TWQWVLINISEEARQRIEEYVRRISKKEGTEVHFEKDDGVLHIRVKNLHEKRAREIHEYAKRVIL
notes: also called LHD29A; 29A
Kd (LHD29 chainB [3]): 310 nM | binding result [4]: binds | Kd (LHD29 chainB [5]): 985 nM | koff (LHD29 chainB [5]): 0.00068 s⁻¹ | kon (LHD29 chainB [5]): 690 M⁻¹ s⁻¹

B4: LHD206 chainA (designed binder)
chain: TDELLERLRQLFEELHERGTEIVVEVHINGRKTEIEVQGIDKRLLKIILEVIREEIEREGSSEVEVNVHSGGQTWTFNEK
notes: also called LHD206A
Kd (LHD206 chainB [6]): 8.4 nM | Kd (LHD206 chainB [7]): 2.8 nM | koff (LHD206 chainB [7]): 0.00075 s⁻¹ | kon (LHD206 chainB [7]): 270000 M⁻¹ s⁻¹

B5: DF202 (designed binder)
chain: NTHFIVVHGTEEARQLAEEIVRLIAEALGTEVRFEKKDGLLSIEVKNLPEEAQRLIQKLLQLAVRIAQAAKSGDNDQLRELAEDALRLAKEAEKLGDLGAAAVAARLAVEAAKQAGDNDVLRKVAEQALRIAKEAEKQGLVDVAVEAARVAVEAAKQAGDNDVLRKVAEQALRIAKEAEKQGNVEVAVKAARVAVEAAKQAGDNDVLRKVAEQALRIVREALKQGNKEVAKKALEVAIEAANQAGDQKLLAEILLLAIEVLVVEMGVTMETHKSGNKVKVVIKGLHESQQETLRKLVHELLRKLGVVAVTQKHGDTVTIYVTEGGSHHWGSGSHHHHHH
notes: Bivalent connector
binding result (DFA0): binds | binding result (202B57): binds
